The text below walks through data of publication PMC11018626, “Sm-like protein Rof inhibits transcription termination factor ρ by binding site obstruction and conformational insulation” (Nature Communications, 2023).

Data set [1] addresses T1, Transcription termination factor ρ F89S (E. coli) (E. coli, UniProt P0AG30 1-419, F89S).
T1 construct: Transcription termination factor Rho, E. coli, with F89S
In words: SEC; analytical SEC, Superdex S200 PC 3.2 column, 5 µM ρ and 90 µM Rof/variants mixed in reaction buffer (20 mM Tris-HCl pH 8.0, 120 mM KOAc, 5 mM Mg(OAc)2, 2 mM DTT), 32 °C 10 min, run at 4 °C; fractions analysed by SDS-PAGE. To be noted: both partners purified.

Data set [2] concerns the target T2, Transcription termination factor ρ K115E (E. coli) (E. coli, UniProt P0AG30 1-419, K115E).
T2 construct: Transcription termination factor Rho, E. coli, with K115E
The data set is described as above. Conditions: both partners purified.

The target in data set [3] is Transcription termination factor ρ, wild type (E. coli) (E. coli, UniProt P0AG30 1-419). In words: cell-based or functional assay.
The target of data set [4] is T3, Rho (transcription termination factor) (Escherichia coli, UniProt P0AG30 1-419). In words: fluorescence anisotropy; 5 mM Mg2+; no Rof; PBS binding; Anisotropy: 20 mM Na-HEPES pH 7.5, 150 mM KCl, 5% glycerol, 5 mM MgCl2, 0.5 mM TCEP; 5 µM FAM-dC15 or 2 µM FAM-rU12; temperature not stated. To be noted: protein: recombinant; chain copies: 6; label: 5'-FAM; single strand.

For data set [5], the target named is T3, Rho (transcription termination factor). In words: cryo-EM; ADP-BeF3; closed ring, 2.9 Å; Anisotropy: 20 mM Na-HEPES pH 7.5, 150 mM KCl, 5% glycerol, 5 mM MgCl2, 0.5 mM TCEP; 5 µM FAM-dC15 or 2 µM FAM-rU12; temperature not stated. Conditions: protein: recombinant; chain copies: 6; boxB hairpin.
The next data set deals with Rho F89S (Escherichia coli, UniProt P0AG30 1-419, F89S). In words: analytical SEC; Anisotropy: 20 mM Na-HEPES pH 7.5, 150 mM KCl, 5% glycerol, 5 mM MgCl2, 0.5 mM TCEP; 5 µM FAM-dC15 or 2 µM FAM-rU12; temperature not stated. To be noted: protein: recombinant; chain copies: 6; boxB hairpin.
The next data set has as its target Rho R88E (Escherichia coli, UniProt P0AG30 1-419, R88E). Described as above. Conditions: protein: recombinant; chain copies: 6; boxB hairpin.
Data set [6] has as its target T3, Rho (transcription termination factor). In words: fluorescence anisotropy; 2 mM ADP-BeF3, 10 µM unlabeled dC15 blocking PBS; SBS binding / ring closure; Anisotropy: 20 mM Na-HEPES pH 7.5, 150 mM KCl, 5% glycerol, 5 mM MgCl2, 0.5 mM TCEP; 5 µM FAM-dC15 or 2 µM FAM-rU12; temperature not stated. Conditions: protein: recombinant; chain copies: 6; label: 5'-FAM; single strand.

Numbering of substitutions follows the chain as printed. Names and notes keep the numbering of the source.

B1: Rof, wild type, tag-less (E. coli) (natural protein)
chain: MNDTYQPINCDDYDNLELACQHHLMLTLELKDGEKLQAKASDLVSRKNVEYLVVEAAGETRELRLDKITSFSHPEIGTVVVSES
notes: Rof (YaeO), E. coli; codon-optimised rof gene; the C-terminal residue is printed as S84 (84-residue form); the residue numbers used (I8 to S84) fit the 84-residue form; also called Rof^wt; ecRof; source: E. coli RIL (BL21), purified (Ni2+-NTA, TEV protease, Superdex 75)
In the case of B1, the binding result in data set [1] and in data set [2] was “binds” throughout.

B2: Rof Y13A (E. coli) (natural protein)
chain: B1 chain with Y13A
As to B2, the “transcripts terminated by ρ in vitro (λ tR1 template; 25 nM ρ, 5 µM Rof variant); 87% in the absence of Rof” value in data set [3] worked out at 90%.

B3: Rof D14A (E. coli) (natural protein)
chain: B1 chain with D14A
Take B3: in data set [3], the “transcripts terminated by ρ in vitro (λ tR1 template; 25 nM ρ, 5 µM Rof variant); 87% in the absence of Rof” value worked out at 86%.

B4: Rof E17A (E. coli) (natural protein)
chain: B1 chain with E17A
Turning to B4, the “transcripts terminated by ρ in vitro (λ tR1 template; 25 nM ρ, 5 µM Rof variant); 87% in the absence of Rof” value in data set [3] is 25%.

As to CCCCCCCCCCCCCCC (ssDNA) [dC15], the Kd in data set [4] amounted to 1000 nM.

B5: rut RNA (lambda tR1) (structured_RNA)
RNA: GGGAUAACCCCGCUCUUACACAUUCCAGCCCUGAAAAAGGGCAUCAAAUUAAACCACACCUAUGGUGUAUGUCAAAUUAAACCACA
Regarding B5, the binding result in data set [5] was “binds”; with Rho F89S it was “binds”; with Rho R88E, “no binding”.

As to UUUUUUUUUUUU (ssRNA) [rU12], the binding result in data set [6] is “binds”.
